Measurements: US8129592B2, “Plant isoflavonoid hydroxylases and methods of use thereof” (The Samuel Roberts Noble Foundation, Inc., priority 2003, dated 2012)

Tests used:
[1] = substrate: COc1ccc(-c2coc3cc(O)cc(O)c3c2=O)cc1; test: Hydroxylase assay with yeast microsomes expressing recombinant MtCYP81E9 (I3′H); type: biochemical, Medicago truncatula; conditions: other: 2 mM NADPH and pH 8.0, 25.0 °C
Method: (§1) After induction with 20% galactose for ˜18 h, yeast cells was harvested, weighed, and immediately processed for microsomal fractionation.
(§2) After incubation at ˜80 rpm for 30 to 40 min, spheroplasts were centrifuged down for 5 min, washed twice with Zymolyase buffer B, and then twice with phosphate buffer A (0.1 M potassium phosphate pH 8.0, 1 M sorbitol, 14 mM 2-mercaptoethanol). The spheroplasts were re-suspended in a minimum vol of phosphate buffer B (0.1 M potassium phosphate pH 8.0, 0.4 M sucrose, 14 mM β-mercaptoethanol, 1 mM PMSF and 1× protein inhibitor cocktail (Roche Diagnostics GmbH, Mannheim, German), and 1 vol of glass beads (diameter at 0.45/0.50 mm) was added. Samples were vigorously vortexed at 4° C., with the quality of cell disruption checked under the microscope. The supernatant was then removed and the beads washed four times with phosphate buffer B. Supernatants were pooled and centrifuged at 12,000 g for 10 min; the resulting supernatant was then ultracentrifuged at 140,000 g for 90 min. The supernatant was discarded and the pellet washed briefly with phosphate buffer C (0.1 M potassium phosphate, pH 8.0, 0.4 M sucrose, 0.5 mM glutathione), and re-suspended in the same buffer plus 5% glycerol at about 12 mg total protein/ml. Protein was quantified using a Bio-Rad protein assay kit (Bio-Rad, Hercules, Calif.).
(§3) Hydroxylase assays were performed in phosphate buffer C in a total volume of 150 μl containing 2 mM NADPH, 40 μM isoflavone substrate and 40˜70 pmol P450 protein. Reactions were incubated at 25° C. for 1.5 h (over which period the reactions were linear) with gentle shaking and stopped by extracting twice with 500 μl of ethyl acetate. The extracts were combined, evaporated under N2, re-suspended in 60 μl of methanol, and analyzed by HPLC or LC-MS. All assays to determine enzyme specificity were carried out in duplicate. For kinetic studies, the isoflavone concentration was varied at a fixed concentration of NADPH (2 mM), and kinetic constants calculated from initial rate data using Lineweaver-Burke double reciprocal plots. All kinetic analyses were carried out in triplicate.
(§4) Reaction products from enzyme assays (30 μl) were analyzed by HPLC.
(§5) Product identification was firstly based on comparisons of chromatographic behavior and UV spectra with authentic standards. Identifications were then confirmed by HPLC-MS, using a HP 1100 liquid chromatograph coupled to a Bruker Esquire Ion-Trap mass spectrometer equipped with an electrospray source. HPLC separation was achieved using a J. T. Baker Bakerbond reverse-phase column (C18, 5 μm, 4.6 mm×250 mm, J. T. Baker, Philipsberg, N.J.). […] Mass spectra were recorded over a range of 50-2200 m/z.

[2] = substrate: COc1ccc(-c2coc3cc(O)ccc3c2=O)cc1; test: as above; type: biochemical, Medicago truncatula; conditions: other: 2 mM NADPH and pH 8.0, 25.0 °C
Method: as §1, §2, §3, §4, §5

B1: I3′H (MtCYP81E9) (Medicago truncatula) (protein)
chain: MTLFYYSLLSLSFIITIKILLKITSRRLKNLPPGPPTIPIIGNLHHLKHPLHRTFTTLSQTYGDIFSLWFGSRLVVVVSSPSLAHECFTKNDIILANRPRFLTGKYIFYNYTTLGSASYGDHWRNLRRITTIDVLSNNRLNSFLGVRRDETNRLIQKLLKDVVSEGFGFTKVELRPRLTEMTFNAMMRMISGKRYYGDDGDVSDVEEAKQFREIISEMMSLLGANNKGDFLPLLRVVDLDNLEKRCKRIAKRSNAFLEGLIEEHRRGNIHSDGGTMIDHLLKLSESQPEYYSDHLIKGLIQGMLLAGTDTSAVTIEWVMSELLNHPEVLKKAKEELDTQIGKNKLVDEQDLSKLPYLQNIISETLRLHPPAPLLLPHYSSEDCTIGEFNVPKDTIILTNVWGIHRDPKHWNDALSFKPERFEKEEEVNKVMAFGLGRRACPGLSLAQRTVGFTVGLLIQCFEWERESEEKLDMMEGKGITMPMKIPLRAMCKALPIANDVTK
notes: made in house; host or cells: Saccharomyces cerevisiae WAT11, vector YeDP60; microsomal fraction
[1]
  Km: 112.6 µM
  kcat: 0.1 s⁻¹
[2]
  Km: 49.7 µM
  kcat: 0.028 s⁻¹
